Blank lines part the entries; values can stand above or below the sequence they belong to.
Columns and labels:
HLA-B*27:20 = assay: IEDB peptide-MHC binding, purified MHC/competitive/fluorescence; filed as Kd, often an IC50 or EC50 that approximates it; ≥ and ≤ were set here for values at or beyond the usual limits of such assays
HLA-B*45:06 = assay: as above
HLA-C*06:02 [1] = assay: as above; conditions: source organism: Yersinia pseudotuberculosis IP 31758
HLA-B*83:01 = assay: as above
HLA-B*40:13 = assay: as above
HLA-A*32:07 = assay: as above
HLA-A*02:01 = assay: as above
HLA-B*15:42 = assay: as above
HLA-C*15:02 = assay: IEDB peptide-MHC binding, purified MHC/direct/fluorescence; filed as Kd, often an IC50 or EC50 that approximates it; ≥ and ≤ were set here for values at or beyond the usual limits of such assays; conditions: source organism: Yersinia pseudotuberculosis IP 31758
HLA-C*14:02 [2] = assay: as above; conditions: source organism: Yersinia pseudotuberculosis IP 31758
HLA-A*24:02 [3] = assay: IEDB peptide-MHC binding, purified MHC/competitive/fluorescence; ≥ and ≤ were set here for values at or beyond the usual limits of such assays; conditions: source organism: Homo sapiens
HLA-B*40:02 = assay: as above; conditions: source organism: Homo sapiens
HLA-C*07:02 = assay: IEDB peptide-MHC binding, purified MHC/direct/fluorescence; filed as Kd, often an IC50 or EC50 that approximates it; ≥ and ≤ were set here for values at or beyond the usual limits of such assays
HLA-A*68:23 = assay: IEDB peptide-MHC binding, purified MHC/competitive/fluorescence; filed as Kd, often an IC50 or EC50 that approximates it; ≥ and ≤ were set here for values at or beyond the usual limits of such assays; conditions: source organism: Shigella flexneri 5 str. 8401
HLA-A*03:01 [4] = assay: as above
HLA-A*31:01 = assay: as above; conditions: source organism: Shigella flexneri 5 str. 8401
HLA-C*04:01 = assay: as above; conditions: source organism: Escherichia coli HS
HLA-A*32:15 = assay: as above; conditions: source organism: Escherichia coli HS
HLA-B*48:01 = assay: as above; conditions: source organism: Escherichia coli HS
HLA-C*14:02 [5] = assay: as above; conditions: source organism: Escherichia coli HS
HLA-C*06:02 [6] = assay: IEDB peptide-MHC binding, purified MHC/direct/fluorescence; filed as Kd, often an IC50 or EC50 that approximates it; ≥ and ≤ were set here for values at or beyond the usual limits of such assays; conditions: source organism: Escherichia coli HS
HLA-C*03:03 = assay: as above; conditions: source organism: Escherichia coli HS
HLA-C*12:03 = assay: as above; conditions: source organism: Escherichia coli HS
HLA-B*58:01 = assay: IEDB peptide-MHC binding, purified MHC/competitive/fluorescence; filed as Kd, often an IC50 or EC50 that approximates it; ≥ and ≤ were set here for values at or beyond the usual limits of such assays; conditions: source organism: Corynebacterium glutamicum ATCC 13032
HLA-B*27:05 = assay: as above; conditions: source organism: Corynebacterium glutamicum ATCC 13032
HLA-A*01:01 [7] = assay: as above; conditions: source organism: Corynebacterium glutamicum ATCC 13032
HLA-B*07:02 = assay: as above; conditions: source organism: Corynebacterium glutamicum ATCC 13032
HLA-A*24:02 [8] = assay: as above; conditions: source organism: Corynebacterium glutamicum ATCC 13032
HLA-B*15:01 [9] = assay: as above; conditions: source organism: Corynebacterium glutamicum ATCC 13032
HLA-B*40:01 = assay: as above; conditions: source organism: Corynebacterium glutamicum ATCC 13032
HLA-A*11:01 = assay: IEDB peptide-MHC binding, purified MHC/direct/fluorescence; filed as Kd, often an IC50 or EC50 that approximates it; ≥ and ≤ were set here for values at or beyond the usual limits of such assays; conditions: source organism: Homo sapiens
HLA-A*01:01 [10] = assay: as above; conditions: source organism: Homo sapiens
HLA-B*15:01 [11] = assay: as above
HLA-A*01:01 [12] = assay: IEDB peptide-MHC binding, purified MHC/competitive/radioactivity; ≥ and ≤ were set here for values at or beyond the usual limits of such assays; conditions: source organism: Homo sapiens
HLA-B*35:01 = assay: IEDB peptide-MHC binding, purified MHC/competitive/fluorescence; filed as Kd, often an IC50 or EC50 that approximates it; ≥ and ≤ were set here for values at or beyond the usual limits of such assays; conditions: source organism: Zaire ebolavirus
HLA-A*25:01 = assay: as above; conditions: source organism: Zaire ebolavirus
HLA-A*69:01 = assay: as above; conditions: source organism: Zaire ebolavirus
HLA-B*51:01 = assay: as above; conditions: source organism: Zaire ebolavirus
HLA-B*27:03 = assay: as above; conditions: source organism: Zaire ebolavirus
HLA-A*26:01 = assay: as above; conditions: source organism: Zaire ebolavirus
HLA-B*57:01 = assay: as above; conditions: source organism: Zaire ebolavirus
HLA-B*39:01 = assay: as above; conditions: source organism: Zaire ebolavirus
HLA-A*02:11 = assay: IEDB peptide-MHC binding, purified MHC/direct/fluorescence; filed as Kd, often an IC50 or EC50 that approximates it; ≥ and ≤ were set here for values at or beyond the usual limits of such assays; conditions: source organism: Zaire ebolavirus
HLA-A*02:12 = assay: as above; conditions: source organism: Zaire ebolavirus
HLA-A*02:19 = assay: as above; conditions: source organism: Zaire ebolavirus
HLA-A*02:16 = assay: as above; conditions: source organism: Zaire ebolavirus
HLA-A*03:01 [13] = assay: as above; conditions: source organism: Zaire ebolavirus
HLA-A*68:02 = assay: as above; conditions: source organism: Zaire ebolavirus
HLA-A*02:03 = assay: as above; conditions: source organism: Zaire ebolavirus
[14] = source organism: Yersinia pseudotuberculosis IP 31758
[15] = source organism: Shigella flexneri 5 str. 8401
[16] = source organism: Escherichia coli HS
[17] = source organism: Corynebacterium glutamicum ATCC 13032

Sequence: FQWWRSHPL
Kd (HLA-B*27:20; [14]): ≤ 0.1 nM
Kd (HLA-B*45:06; [14]): ≥ 5000 nM
Kd (HLA-C*06:02 [1]): 837 nM
Kd (HLA-B*83:01; [14]): 475 nM
Kd (HLA-B*40:13; [14]): 1.3 nM
Kd (HLA-A*32:07; [14]): 73.6 nM
Kd (HLA-A*02:01; [14]): ≤ 0.1 nM
Kd (HLA-B*15:42; [14]): ≥ 5000 nM
Kd (HLA-C*15:02): 1400 nM
Kd (HLA-C*14:02 [2]): 232 nM

IC50 (HLA-A*24:02 [3]): 305 nM
IC50 (HLA-B*40:02): ≥ 20000 nM
Kd (HLA-C*07:02; source organism: Homo sapiens): 182 nM
Sequence: FYYNAFHWAI

Sequence: TTIPTNLFR
Kd (HLA-B*45:06; [15]): ≥ 5000 nM
Kd (HLA-A*68:23): 332 nM
Kd (HLA-A*03:01 [4]; [15]): 3000 nM
Kd (HLA-B*83:01; [15]): ≥ 5000 nM
Kd (HLA-A*31:01): 121 nM
Kd (HLA-B*15:42; [15]): ≥ 5000 nM

Sequence: MMWATAQAL
Kd (HLA-B*27:20; [16]): 6.4 nM
Kd (HLA-C*04:01): ≥ 5000 nM
Kd (HLA-A*32:15): 391 nM
Kd (HLA-B*48:01): 242 nM
Kd (HLA-B*45:06; [16]): ≥ 5000 nM
Kd (HLA-B*83:01; [16]): ≥ 5000 nM
Kd (HLA-C*14:02 [5]): 6.4 nM
Kd (HLA-B*40:13; [16]): 212 nM
Kd (HLA-A*32:07; [16]): 42 nM
Kd (HLA-B*15:42; [16]): ≥ 5000 nM
Kd (HLA-C*06:02 [6]): ≥ 20000 nM
Kd (HLA-C*03:03): 337 nM
Kd (HLA-C*07:02; [16]): 572 nM
Kd (HLA-C*12:03): 1640 nM

Kd (HLA-B*58:01): 6.1 nM
Kd (HLA-B*27:05): ≥ 20000 nM
Kd (HLA-A*01:01 [7]): 14.1 nM
Kd (HLA-B*07:02): ≥ 20000 nM
Kd (HLA-A*24:02 [8]): ≥ 20000 nM
Kd (HLA-A*03:01 [4]; [17]): 161 nM
Kd (HLA-B*15:01 [9]): 46.5 nM
Kd (HLA-B*40:01): ≥ 20000 nM
Kd (HLA-A*02:01; [17]): ≥ 20000 nM
Sequence: MSSAAHLLY

Kd (HLA-A*11:01): 2020 nM
Kd (HLA-A*01:01 [10]): 164 nM
Kd (HLA-B*15:01 [11]; source organism: Homo sapiens): 1090 nM
IC50 (HLA-A*01:01 [12]): 7 nM
Sequence: IVDCLTEMY

Sequence: NFFHASLAY
Kd (HLA-B*35:01): 6 nM
Kd (HLA-A*25:01): ≥ 20000 nM
Kd (HLA-A*69:01): ≥ 20000 nM
Kd (HLA-B*51:01): ≥ 20000 nM
Kd (HLA-B*27:03): ≥ 20000 nM
Kd (HLA-A*26:01): ≥ 20000 nM
Kd (HLA-B*57:01): ≥ 20000 nM
Kd (HLA-A*02:01; source organism: Zaire ebolavirus): ≥ 20000 nM
Kd (HLA-B*39:01): ≥ 20000 nM
Kd (HLA-A*02:11): ≥ 20000 nM
Kd (HLA-A*02:12): ≥ 20000 nM
Kd (HLA-A*02:19): ≥ 20000 nM
Kd (HLA-A*02:16): ≥ 20000 nM
Kd (HLA-A*03:01 [13]): ≥ 20000 nM
Kd (HLA-A*68:02): ≥ 20000 nM
Kd (HLA-B*15:01 [11]; source organism: Sudan ebolavirus - Maleo (1979)): 64.1 nM
Kd (HLA-A*02:03): ≥ 20000 nM

— the Immune Epitope Database (IEDB)
